We go through one protein from PMC2918291 (Nature structural & molecular biology, 2010).

The data set deals with the molecule itself. The data set is described as follows: crystal structure.

B1: MthK K^+ channel ion conduction pore, S68R V77C mutant (domain or fragment, Methanobacterium thermoautotrophicum)
chain: VPATRILLLVLAVIIYGTAGFHFIEGESWTVSLYWTFVTIATVGYGDYSPRTPLGMYFTCTLIVLGIGTFAVAVERLLEFLI
With B1, the binding result was “binds”.
